From US7192728B2, “Screening assays for agents that alter inhibitor of apoptosis (IAP) protein regulation of caspase activity” (The Burnham Institute, priority 1997, dated 2007) come the findings set out here.

In assay [1] the target is T1, caspase-6 (Homo sapiens, UniProt P55212).
T1 construct: Purified active caspase concentrations ranged from 0.1 nM to 10 nM; His6; made in house; host or cells: E. coli BL21(DE3)pLysS
T1 sequence (P55212 24-179 limits assumed): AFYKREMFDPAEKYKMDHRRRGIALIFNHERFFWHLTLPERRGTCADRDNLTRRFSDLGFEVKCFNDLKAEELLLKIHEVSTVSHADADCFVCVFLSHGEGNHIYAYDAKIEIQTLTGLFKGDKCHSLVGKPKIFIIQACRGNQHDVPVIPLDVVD
T1 sequence (P55212 194-293 limits assumed): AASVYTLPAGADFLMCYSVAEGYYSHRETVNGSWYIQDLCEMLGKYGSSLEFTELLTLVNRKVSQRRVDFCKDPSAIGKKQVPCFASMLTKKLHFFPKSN
In words: GST pull-down binding to caspase-6. The conditions noted are these: glutathione-Sepharose beads, immunoblot. On the technique in general: In western blotting, separated proteins are transferred to a membrane and probed.

Assay [2] concerns the target T1, caspase-6. Kind of assay: Inhibition of purified recombinant caspase-6, DEVD substrate hydrolysis. The assay is classed as biochemical. Here is the method: (§1) Purified recombinant caspase-1, caspase-3, caspase-6, caspase-7 or caspase-8 were incubated with DEVD-pNA, either alone or with a 10-fold to 50-fold molar excess of GST-XIAP ([…]) and substrate hydrolysis was measured. Purified active caspase concentrations ranged from 0.1 nM to 10 nM. XIAP concentration ranged from 0.1 nM to 500 nM. Assays were performed in caspase buffer (50 mM Tris, pH 7.4, 100 mM NaCl, 10% sucrose, 5–10 mM DTT, 1 mM EDTA and 0.1% CHAPS).
(§2) Equilibria were determined from progress curves when substrate hydrolysis reached a steady-state; slopes were calculated by curve fit analysis using the cricket graph program. Experiments were performed using purified recombinant caspase-3, caspase-6, or caspase-7. DEVD-AFC hydrolysis was measured using 0.1 nM caspase and a range of concentrations (0.2 to 12 μM) of recombinant XIAP (rXIAP). […] Average ratio velocities (vi/vo, where “vi” indicates presence of GST-XIAP and “vo” indicates absence of GST-XIAP) were determined.

The target of another assay is T2, caspase-1 (Homo sapiens, UniProt P29466).
T2 construct: Purified active caspase concentrations ranged from 0.1 nM to 10 nM; made in house
T2 sequence (P29466 120-297 limits assumed): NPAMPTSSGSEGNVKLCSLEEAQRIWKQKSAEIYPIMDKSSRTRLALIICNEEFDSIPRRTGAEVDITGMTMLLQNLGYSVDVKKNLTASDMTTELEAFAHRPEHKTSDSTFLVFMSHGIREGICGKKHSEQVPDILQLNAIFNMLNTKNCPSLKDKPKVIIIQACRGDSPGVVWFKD
T2 sequence (P29466 317-404 limits assumed): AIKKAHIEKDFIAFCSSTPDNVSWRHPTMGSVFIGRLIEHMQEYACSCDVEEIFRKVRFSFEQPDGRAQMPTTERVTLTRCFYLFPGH
Kind of assay: Inhibition of purified recombinant caspase-1, substrate hydrolysis. It is filed as biochemical. As to conditions: 50-fold molar excess. Here is the method:
as §1

A further assay has as its target T3, caspase-3 (Homo sapiens, UniProt P42574).
T3 construct: to produce the 17–20 kDa mature, fully processed large subunit of the active caspase-3 enzyme; a smaller, fully processed, subunit of about 11 kDa; His6; made in house; host or cells: E. coli BL21(DE3)pLysS
T3 sequence (P42574 29-175 limits assumed): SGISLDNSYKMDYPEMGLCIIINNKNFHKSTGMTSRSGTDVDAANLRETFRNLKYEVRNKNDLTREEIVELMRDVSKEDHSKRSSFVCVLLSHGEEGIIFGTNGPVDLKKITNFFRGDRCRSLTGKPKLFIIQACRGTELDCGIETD
T3 sequence (P42574 176-277 limits assumed): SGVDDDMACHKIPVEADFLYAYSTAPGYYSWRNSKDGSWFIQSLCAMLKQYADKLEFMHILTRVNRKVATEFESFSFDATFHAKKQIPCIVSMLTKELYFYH
In words: Inhibition of purified recombinant caspase-3, DEVD substrate hydrolysis and progress curves. The assay is classed as biochemical. Here is the method:
as §1, §2
Caspase activity was determined essentially as described in Example II, using the benzylyoxycarbonyl-DEVD-AFC (SEQ ID NO: 2) substrate and was assayed at 37° C. using the Perkin-Elmer LS50B fluorometric plate reader in the kinetic mode with excitation and emission wavelengths of 400 nm and 505 nm, respectively. […] Reactions were performed in caspase buffer (50 mM Hepes, 100 mM NaCl, 1 mM EDTA, 0.1% CHAPS, 10% sucrose, 5 mM DTT). The inhibition constant, Ki, was calculated as described (Zhou et al., supra, 1997). Immunoblot analysis was performed as described in Example I.B.3.

Assay [3] concerns HeLa cell nuclei in cytosolic extract. In words: Apoptosis of isolated nuclei in cell-free system (cytochrome c/dATP). The conditions noted are these: 0.4 μM protein with 10 μM cytochrome c and 1 mM dATP; 37° C., 60 min; baseline about 15%, cytochrome c/dATP alone >95%. Here is the method:
Cells were washed with ice cold buffer A (20 mM Hepes (pH 7.5), 10 mM KCl, 1.5 mM MgCl2, 1 mM EDTA, 1 mM DTT and 0.1 mM PMSF) and suspended in 1 vol buffer A, then incubated on ice for 20 min. 293 cells were disrupted by passage 15× through a 26 gauge needle and Jurkat T cells were disrupted by dounce homogenization in 2 ml using 15 strokes with a pestle B. Cell extracts (10–15 mg total protein/ml) were clarified by centrifugation at 16,000×g for 30 min, then the NaCl concentration was increased by 50 mM. Cytosolic fractions were used immediately or stored frozen at −80° C.
Isolated nuclei were prepared from HeLa cells (Martin et al., supra, 1995). Approximately 5×10^4 to 1×10^5 nuclei were added to 20 μl cytosolic extract and apoptosis was initiated by adding 10 μM horse heart cytochrome c (Sigma, Inc.; St. Louis Mo.) and 1 mM dATP, alone (positive control) or with cytochrome c, dATP and either 0.4 μM GST-XIAP or 0.4 μM GST-Bcl-2. Following incubation at 37° C. for 60 min., nuclei were stained with 1 μg/ml of acridine orange and ethidium bromide and the percentage nuclei with apoptotic features, including extremely condensed chromatin and the genesis of fragmentation of nuclei, was determined.

Another assay has as its target T4, caspase-7 (Homo sapiens, UniProt P55210).
T4 construct: Purified active caspase concentrations ranged from 0.1 nM to 10 nM; His6; made in house; host or cells: E. coli BL21(DE3)pLysS
T4 sequence (P55210 24-198 limits assumed): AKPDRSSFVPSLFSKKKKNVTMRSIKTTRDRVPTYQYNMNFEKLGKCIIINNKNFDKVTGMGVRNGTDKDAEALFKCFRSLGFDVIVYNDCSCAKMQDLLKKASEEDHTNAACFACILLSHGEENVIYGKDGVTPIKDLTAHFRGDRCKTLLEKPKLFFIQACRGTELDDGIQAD
T4 sequence (P55210 207-303 limits assumed): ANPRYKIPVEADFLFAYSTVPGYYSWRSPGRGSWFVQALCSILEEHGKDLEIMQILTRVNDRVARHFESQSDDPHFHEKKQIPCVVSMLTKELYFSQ
In words: Inhibition of purified recombinant caspase-7, DEVD substrate hydrolysis and progress curves. The assay is classed as biochemical.

Where [4] appears, read: DEVD-AFC hydrolysis with/without GST-XIAP.

Method for caspase-7: Purified recombinant caspase-1, caspase-3, caspase-6, caspase-7 or caspase-8 were incubated with DEVD-pNA, either alone or with a 10-fold to 50-fold molar excess of GST-XIAP (20 μM) and substrate hydrolysis was measured. Purified active caspase concentrations ranged from 0.1 nM to 10 nM. XIAP concentration ranged from 0.1 nM to 500 nM. Assays were performed in caspase buffer (50 mM Tris, pH 7.4, 100 mM NaCl, 10% sucrose, 5–10 mM DTT, 1 mM EDTA and 0.1% CHAPS).

Usually Ki stands for a measure of affinity in units of concentration, obtained from inhibition or displacement. With “XIAP: X chromosome linked inhibitor of apoptosis protein (Genbank U32974), used mostly as recombinant GST fusion or expressed from plasmid”, the “binding of caspase-6 (in words)” value with caspase-6 [1] is given as “not caspase-6”. The “interference with substrate cleavage by caspase-6” value with caspase-6 [2] (50-fold molar excess) was “did not interfere”. Also, the “average ratio velocity (vi/vo), caspase-6” value in the assay with caspase-6 [2] (setting [4]) is “about 1.0”. Moreover, the “interference with substrate cleavage by caspase-1” value in the assay with caspase-1 is “did not interfere”. Besides, the “inhibition of processing of DEVD-pNA by caspase-3” value with caspase-3 (10-fold molar excess) is reported as “greater than 95%”. Moreover, in the assay with caspase-3 (setting [4]), the “average ratio velocity (vi/vo), caspase-3” value was “less than 0.2”. The Ki with caspase-3 (progress curve analysis, DEVD-AFC 0.1 mM, 0.1 nM caspase, read-out: inhibition constant (Ki) for caspase-3) was around 0.7 nM; in the assay with caspase-7 (progress curve analysis, DEVD-AFC 0.1 mM, 0.1 nM caspase, read-out: inhibition constant (Ki) for caspase-7) it was around 0.2 nM. Moreover, the apoptotic nuclei result in assay [3] was “about 15%”. Besides, the “inhibition of processing of DEVD-pNA by caspase-7” value with caspase-7 (10-fold molar excess) is given as “greater than 95%”. The “average ratio velocity (vi/vo), caspase-7” value with caspase-7 (setting [4]) is on record as “less than 0.2”.
